According to patent JP2014141434A (dated 2014):

Assays:
[1] = molecular target: T1, 全長ヒトROBO4 (pCI−hROBO4導入細胞) (human, UniProt Q8WZ75 28-1007); assay: flow cytometry, hybridoma supernatant on hROBO4-transfected HEK293T cells against mock cells
T1 construct: Expressed from pCI-hROBO4 on HEK293 / HEK293T cells; also called human ROBO4
T1 sequence: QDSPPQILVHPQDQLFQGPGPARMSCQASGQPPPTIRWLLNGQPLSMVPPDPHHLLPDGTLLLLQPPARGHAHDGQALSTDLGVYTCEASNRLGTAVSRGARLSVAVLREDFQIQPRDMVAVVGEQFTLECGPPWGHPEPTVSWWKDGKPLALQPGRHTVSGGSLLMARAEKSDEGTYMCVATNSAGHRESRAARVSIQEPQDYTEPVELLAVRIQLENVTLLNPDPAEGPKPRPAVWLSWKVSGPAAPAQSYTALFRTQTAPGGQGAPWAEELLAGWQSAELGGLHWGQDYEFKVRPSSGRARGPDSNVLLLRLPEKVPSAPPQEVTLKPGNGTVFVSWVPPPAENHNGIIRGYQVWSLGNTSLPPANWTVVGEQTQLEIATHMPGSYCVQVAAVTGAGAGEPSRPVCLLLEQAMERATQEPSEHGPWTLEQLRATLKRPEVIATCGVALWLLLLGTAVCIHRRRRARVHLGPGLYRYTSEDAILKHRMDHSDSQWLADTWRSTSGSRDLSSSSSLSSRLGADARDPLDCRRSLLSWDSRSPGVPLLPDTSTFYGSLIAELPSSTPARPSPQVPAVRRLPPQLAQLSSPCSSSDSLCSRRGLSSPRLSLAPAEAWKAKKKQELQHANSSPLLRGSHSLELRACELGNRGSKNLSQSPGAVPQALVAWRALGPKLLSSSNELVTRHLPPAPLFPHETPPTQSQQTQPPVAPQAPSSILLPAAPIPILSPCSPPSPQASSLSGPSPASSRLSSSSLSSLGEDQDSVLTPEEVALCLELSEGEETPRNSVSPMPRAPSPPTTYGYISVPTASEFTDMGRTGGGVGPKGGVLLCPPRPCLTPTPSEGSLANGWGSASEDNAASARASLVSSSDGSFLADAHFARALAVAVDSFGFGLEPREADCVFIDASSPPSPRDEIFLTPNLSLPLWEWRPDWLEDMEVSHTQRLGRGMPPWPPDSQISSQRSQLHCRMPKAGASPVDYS

[2] = molecular target: T2, N末端FLAG−tag付加型ヒトROBO4細胞外領域ドメイン欠損体 hROBO4−210 (human, UniProt Q8WZ75 210-1007); assay: flow cytometry, transfected HEK293 cells
T2 construct: On HEK293 cells; also called pCI−FLAG−hROBO4−210; pCI−hROBO4−210
T2 sequence: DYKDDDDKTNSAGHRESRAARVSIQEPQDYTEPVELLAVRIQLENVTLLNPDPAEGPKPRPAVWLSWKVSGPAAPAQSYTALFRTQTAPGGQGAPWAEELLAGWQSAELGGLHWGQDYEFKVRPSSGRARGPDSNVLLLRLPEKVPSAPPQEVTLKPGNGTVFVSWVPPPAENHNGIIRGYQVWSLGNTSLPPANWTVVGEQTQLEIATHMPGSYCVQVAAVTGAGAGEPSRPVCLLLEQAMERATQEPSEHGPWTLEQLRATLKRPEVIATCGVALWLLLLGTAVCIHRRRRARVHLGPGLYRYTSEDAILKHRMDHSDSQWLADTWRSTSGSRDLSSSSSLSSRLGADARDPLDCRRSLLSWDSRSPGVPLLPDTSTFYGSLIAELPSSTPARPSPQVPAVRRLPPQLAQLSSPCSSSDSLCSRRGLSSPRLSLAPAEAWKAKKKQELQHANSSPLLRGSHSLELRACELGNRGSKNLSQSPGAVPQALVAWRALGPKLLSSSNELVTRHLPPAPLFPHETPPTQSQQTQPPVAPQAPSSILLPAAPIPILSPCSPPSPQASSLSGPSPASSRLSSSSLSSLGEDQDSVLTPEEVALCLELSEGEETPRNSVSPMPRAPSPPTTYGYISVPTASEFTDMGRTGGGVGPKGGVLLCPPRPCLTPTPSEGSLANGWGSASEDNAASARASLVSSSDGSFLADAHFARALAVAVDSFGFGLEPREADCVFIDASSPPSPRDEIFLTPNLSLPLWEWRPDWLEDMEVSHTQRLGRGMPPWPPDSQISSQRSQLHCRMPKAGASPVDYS

B1: 抗ROBO4マウスモノクローナル抗体 MAb1 (antibody, V domains shown)
VH: EVQLVESGGGLVKPGGSLKLSCAASGFTFSTYAMSWVRQTPEKRLEWVATISNGGTYTYYPDSVKGRFTISRDNAENTLYLQMSSLRSEDTAMYFCARLIYYDYLDYWGHGTTLTVSS
VL: DAVMTQTPLSLPVSLGDQASISCRSSQSLENSNGNTYLNWYFQKPGQSPQLLIYRVSNRFSGVLDRFSGSGSGTDFTLKISRVEAEDFGVYFCLQVTHVPWTFGGGTKLEIKR
notes: Mouse IgG1 (gamma 1) / kappa from a hybridoma; The constant regions are not in the listing; also called MAb1
- binding result [1]: binds
- binding result [2]: no binding (tested: 10 μg/mL)
